Data: publication PMC12474298 (Viruses, 2025)
Where no end group is shown, it is not given here.

Biological target: mouse importin α2 lacking the importin-β binding domain (mouse IMPα2ΔIBB) (mouse, UniProt P52293 70-529)
Experiment: fluorescence polarisation
Conditions: both partners purified

B1: HaHV1 UL36h NLS peptide (residues 1491-1500), FITC/Ahx-labelled (peptide)
peptide: ETKKRRRILE
modifications: not fully specified (N-terminus); also: FITC/Ahx-labelled, position not given here
notes: also called HaHV1 NLS; HaHV1-NLS
- Kd: 609 nM
